Data: IntAct's records for PubMed 18509061

B1: Histone deacetylase 7 (Mus musculus), Q8C2B3-1 (parent)
chain: MHSPGAGCPALQPDTPGSQPQPMDLRVGQRPTVEPPPEPALLTLQHPQRLHRHLFLAGLHQQQRSAEPMRLSMDPPMPELQGGQQEQELRQLLNKDKSKRSAVASSVVKQKLAEVILKKQQAALERTVHPSSPSIPYRTLEPLDTEGAARSVLSSFLPPVPSLPTEPPEHFPLRKTVSEPNLKLRYKPKKSLERRKNPLLRKESAPPSLRRRPAETLGDSSPSSSSTPASGCSSPNDSEHGPNPALGSEADGDRRTHSTLGPRGPVLGNPHAPLFLHHGLEPEAGGTLPSRLQPILLLDPSVSHAPLWTVPGLGPLPFHFAQPLLTTERLSGSGLHRPLNRTRSEPLPPSATASPLLAPLQPRQDRLKPHVQLIKPAISPPQRPAKPSEKPRLRQIPSAEDLETDGGGVGPMANDGLEHRESGRGPPEGRGSISLQQHQQVPPWEQQHLAGRLSQGSPGDSVLIPLAQVGHRPLSRTQSSPAAPVSLLSPEPTCQTQVLNSSETPATGLVYDSVMLKHQCSCGDNSKHPEHAGRIQSIWSRLQERGLRSQCECLRGRKASLEELQSVHSERHVLLYGTNPLSRLKLDNGKLTGLLAQRTFVMLPCGGVGVDTDTIWNELHSSNAARWAAGSVTDLAFKVASRELKNGFAVVRPPGHHADHSTAMGFCFFNSVAIACRQLQQHGKASKILIVDWDVHHGNGTQQTFYQDPSVLYISLHRHDDGNFFPGSGAVDEVGTGSGEGFNVNVAWAGGLDPPMGDPEYLAAFRIVVMPIAREFAPDLVLVSAGFDAAEGHPAPLGGYHVSAKCFGYMTQQLMNLAGGAVVLALEGGHDLTAICDASEACVAALLGNKVDPLSEESWKQKPNLSAIRSLEAVVRVHRKYWGCMQRLASCPDSWLPRVPGADAEVEAVTALASLSVGILAEDRPSERLVEEEEPMNL
partner: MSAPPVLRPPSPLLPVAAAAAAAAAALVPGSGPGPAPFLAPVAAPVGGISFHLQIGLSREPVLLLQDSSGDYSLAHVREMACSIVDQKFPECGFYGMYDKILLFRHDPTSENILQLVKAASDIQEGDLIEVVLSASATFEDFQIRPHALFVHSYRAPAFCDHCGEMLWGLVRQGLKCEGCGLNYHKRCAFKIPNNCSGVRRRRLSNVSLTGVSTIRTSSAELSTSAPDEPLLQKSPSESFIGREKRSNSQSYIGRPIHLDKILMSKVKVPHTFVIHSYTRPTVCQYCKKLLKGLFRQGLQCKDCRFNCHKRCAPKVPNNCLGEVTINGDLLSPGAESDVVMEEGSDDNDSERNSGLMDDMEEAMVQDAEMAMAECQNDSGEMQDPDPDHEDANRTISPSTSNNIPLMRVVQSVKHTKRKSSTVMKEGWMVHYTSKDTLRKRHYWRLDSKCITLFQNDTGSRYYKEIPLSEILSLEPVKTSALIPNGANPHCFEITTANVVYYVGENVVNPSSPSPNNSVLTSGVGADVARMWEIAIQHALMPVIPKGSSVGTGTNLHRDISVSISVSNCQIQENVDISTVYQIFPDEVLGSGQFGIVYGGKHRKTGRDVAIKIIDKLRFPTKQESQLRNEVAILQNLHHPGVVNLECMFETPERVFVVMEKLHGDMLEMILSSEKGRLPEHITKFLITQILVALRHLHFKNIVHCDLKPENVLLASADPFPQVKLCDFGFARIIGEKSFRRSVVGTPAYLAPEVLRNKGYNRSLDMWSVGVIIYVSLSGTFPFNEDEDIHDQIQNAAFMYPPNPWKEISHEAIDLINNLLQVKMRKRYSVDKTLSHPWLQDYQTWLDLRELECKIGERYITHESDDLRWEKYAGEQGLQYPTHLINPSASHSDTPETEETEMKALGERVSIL

Variants of: B1
Settings: with kpcd1_human PRKD1, Q15139

effect of a mutation on the interaction	Variant
increasing interaction strength	S178A;S344A;S479A
